Consider seven molecules from patent US20230357348A1 (AstraZeneca / MedImmune, published 2023).

Starred links: 1 amine or outer side, 2 acyl side, 3 side chain; linkers in the order of their positions; H or OH if unused. Non-standard residues stand in square brackets, D forms with d. Groups on a side chain read outwards from the residue. No end group written: not given here. *: point of attachment. C18 diacid = O=C(O)CCCCCCCCCCCCCCCCC(=O)*; γGlu = O=C(O)[C@H](CCC(=O)[*:2])N[*:1]; αMeF = C[C@](N)(Cc1ccccc1)C(=O)O; AEEA = NCCOCCOCC(=O)O; Aib = CC(C)(N)C(=O)O

Assay in all cases: cell-based or functional assay
Test [1] deals with human GLP-1 receptor (hGLP-1R) (human, UniProt P43220 24-463).
Test [2] deals with human glucagon receptor (hGCGR) (human, UniProt P47871 26-477).
Target sequence in this assay (P47871 26-477): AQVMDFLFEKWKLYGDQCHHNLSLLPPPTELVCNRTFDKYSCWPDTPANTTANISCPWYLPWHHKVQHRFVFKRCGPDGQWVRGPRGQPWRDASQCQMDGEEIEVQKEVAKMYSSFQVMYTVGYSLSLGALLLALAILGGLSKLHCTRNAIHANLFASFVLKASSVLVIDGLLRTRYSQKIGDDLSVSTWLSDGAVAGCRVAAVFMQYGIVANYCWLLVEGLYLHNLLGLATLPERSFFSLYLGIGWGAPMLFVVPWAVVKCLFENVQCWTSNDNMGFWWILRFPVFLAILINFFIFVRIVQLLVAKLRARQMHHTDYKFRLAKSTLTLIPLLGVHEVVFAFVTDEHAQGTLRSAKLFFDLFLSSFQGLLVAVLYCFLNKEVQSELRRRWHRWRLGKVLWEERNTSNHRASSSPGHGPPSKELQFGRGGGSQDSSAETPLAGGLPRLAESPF
The target of test [3] is human GLP-1 receptor (hGLP-1R) (human, UniProt P43220 24-463). The source holds these as a separate data set.
The target in test [4] is human glucagon receptor (hGCGR) (human, UniProt P47871 26-477). This is another data set of the same source.
Target sequence in this assay (P47871 26-477): as above

B1: Peptide 140 (peptide)
peptide: H[Aib]QGTFTSDVSK[αMeF]LDTK([AEEA-AEEA-γGlu-C18 diacid])RAQDFVRWLLE[Aib]G-OH
modifications: N-terminus assumed
SMILES: CC(C)C[C@H](NC(=O)[C@H](Cc1c[nH]c2ccccc12)NC(=O)[C@H](CCCNC(=N)N)NC(=O)[C@@H](NC(=O)[C@H](Cc1ccccc1)NC(=O)[C@H](CC(=O)O)NC(=O)[C@H](CCC(N)=O)NC(=O)[C@H](C)NC(=O)[C@H](CCCNC(=N)N)NC(=O)[C@H](CCCCNC(=O)COCCOCCNC(=O)COCCOCCNC(=O)CC[C@H](NC(=O)CCCCCCCCCCCCCCCCC(=O)O)C(=O)O)NC(=O)[C@@H](NC(=O)[C@H](CC(=O)O)NC(=O)[C@H](CC(C)C)NC(=O)[C@](C)(Cc1ccccc1)NC(=O)[C@H](CCCCN)NC(=O)[C@H](CO)NC(=O)[C@@H](NC(=O)[C@H](CC(=O)O)NC(=O)[C@H](CO)NC(=O)[C@@H](NC(=O)[C@H](Cc1ccccc1)NC(=O)[C@@H](NC(=O)CNC(=O)[C@H](CCC(N)=O)NC(=O)C(C)(C)NC(=O)[C@@H](N)Cc1c[nH]cn1)[C@@H](C)O)[C@@H](C)O)C(C)C)[C@@H](C)O)C(C)C)C(=O)N[C@@H](CC(C)C)C(=O)N[C@@H](CCC(=O)O)C(=O)NC(C)(C)C(=O)NCC(=O)O
For B1, in test [1], the “hGLP-1R EC50 (pM)” value is 22.7 pM.

B2: Peptide 4 (peptide)
peptide: HSQGS[αMeF]TSDVSK[αMeF]LDSK([AEEA-AEEA-γGlu-C18 diacid])AAQDFVQWIANT-NH2
modifications: N-terminus assumed
SMILES: CC[C@H](C)[C@H](NC(=O)[C@H](Cc1c[nH]c2ccccc12)NC(=O)[C@H](CCC(N)=O)NC(=O)[C@@H](NC(=O)[C@H](Cc1ccccc1)NC(=O)[C@H](CC(=O)O)NC(=O)[C@H](CCC(N)=O)NC(=O)[C@H](C)NC(=O)[C@H](C)NC(=O)[C@H](CCCCNC(=O)COCCOCCNC(=O)COCCOCCNC(=O)CC[C@H](NC(=O)CCCCCCCCCCCCCCCCC(=O)O)C(=O)O)NC(=O)[C@H](CO)NC(=O)[C@H](CC(=O)O)NC(=O)[C@H](CC(C)C)NC(=O)[C@](C)(Cc1ccccc1)NC(=O)[C@H](CCCCN)NC(=O)[C@H](CO)NC(=O)[C@@H](NC(=O)[C@H](CC(=O)O)NC(=O)[C@H](CO)NC(=O)[C@@H](NC(=O)[C@](C)(Cc1ccccc1)NC(=O)[C@H](CO)NC(=O)CNC(=O)[C@H](CCC(N)=O)NC(=O)[C@H](CO)NC(=O)[C@@H](N)Cc1c[nH]cn1)[C@@H](C)O)C(C)C)C(C)C)C(=O)N[C@@H](C)C(=O)N[C@@H](CC(N)=O)C(=O)N[C@H](C(N)=O)[C@@H](C)O
B2: the “hGLP-1R EC50 (pM)” value in test [1] was 240 pM. Further, the “hGluc-R EC50 (pM)” value in test [2] was found to be 1170 pM.

B3: Peptide 39 (peptide)
peptide: H[Aib]QGTFTSDVSK[αMeF]LDSK([AEEA-AEEA-γGlu-C18 diacid])RAQDFVRWLL[Aib]TE-OH
modifications: N-terminus assumed
SMILES: CC(C)C[C@H](NC(=O)[C@H](Cc1c[nH]c2ccccc12)NC(=O)[C@H](CCCNC(=N)N)NC(=O)[C@@H](NC(=O)[C@H](Cc1ccccc1)NC(=O)[C@H](CC(=O)O)NC(=O)[C@H](CCC(N)=O)NC(=O)[C@H](C)NC(=O)[C@H](CCCNC(=N)N)NC(=O)[C@H](CCCCNC(=O)COCCOCCNC(=O)COCCOCCNC(=O)CC[C@H](NC(=O)CCCCCCCCCCCCCCCCC(=O)O)C(=O)O)NC(=O)[C@H](CO)NC(=O)[C@H](CC(=O)O)NC(=O)[C@H](CC(C)C)NC(=O)[C@](C)(Cc1ccccc1)NC(=O)[C@H](CCCCN)NC(=O)[C@H](CO)NC(=O)[C@@H](NC(=O)[C@H](CC(=O)O)NC(=O)[C@H](CO)NC(=O)[C@@H](NC(=O)[C@H](Cc1ccccc1)NC(=O)[C@@H](NC(=O)CNC(=O)[C@H](CCC(N)=O)NC(=O)C(C)(C)NC(=O)[C@@H](N)Cc1c[nH]cn1)[C@@H](C)O)[C@@H](C)O)C(C)C)C(C)C)C(=O)N[C@@H](CC(C)C)C(=O)NC(C)(C)C(=O)N[C@H](C(=O)N[C@@H](CCC(=O)O)C(=O)O)[C@@H](C)O
Take B3: the “hGLP-1R EC50 (pM)” value in test [3] came out at 76.1 pM. The “hGluc-R EC50 (pM)” value in test [4] is 194 pM.

B4: Peptide 38 (peptide)
peptide: H[Aib]QGTFTSDVSK[αMeF]LDSK([AEEA-AEEA-γGlu-C18 diacid])RAQDFVEWLL[Aib]T-OH
modifications: N-terminus assumed
SMILES: CC(C)C[C@H](NC(=O)[C@H](Cc1c[nH]c2ccccc12)NC(=O)[C@H](CCC(=O)O)NC(=O)[C@@H](NC(=O)[C@H](Cc1ccccc1)NC(=O)[C@H](CC(=O)O)NC(=O)[C@H](CCC(N)=O)NC(=O)[C@H](C)NC(=O)[C@H](CCCNC(=N)N)NC(=O)[C@H](CCCCNC(=O)COCCOCCNC(=O)COCCOCCNC(=O)CC[C@H](NC(=O)CCCCCCCCCCCCCCCCC(=O)O)C(=O)O)NC(=O)[C@H](CO)NC(=O)[C@H](CC(=O)O)NC(=O)[C@H](CC(C)C)NC(=O)[C@](C)(Cc1ccccc1)NC(=O)[C@H](CCCCN)NC(=O)[C@H](CO)NC(=O)[C@@H](NC(=O)[C@H](CC(=O)O)NC(=O)[C@H](CO)NC(=O)[C@@H](NC(=O)[C@H](Cc1ccccc1)NC(=O)[C@@H](NC(=O)CNC(=O)[C@H](CCC(N)=O)NC(=O)C(C)(C)NC(=O)[C@@H](N)Cc1c[nH]cn1)[C@@H](C)O)[C@@H](C)O)C(C)C)C(C)C)C(=O)N[C@@H](CC(C)C)C(=O)NC(C)(C)C(=O)N[C@H](C(=O)O)[C@@H](C)O
Regarding B4, in test [3], the “hGLP-1R EC50 (pM)” value came out at 75.6 pM. In addition, the “hGluc-R EC50 (pM)” value in test [4] is 441 pM.

B5: Peptide 168 (peptide)
peptide: H[Aib]QGTFTSDVSK[αMeF]LDSK([AEEA-AEEA-γGlu-C18 diacid])RARDFVAWLL[Aib]TE-OH
modifications: N-terminus assumed
SMILES: CC(C)C[C@H](NC(=O)[C@H](Cc1c[nH]c2ccccc12)NC(=O)[C@H](C)NC(=O)[C@@H](NC(=O)[C@H](Cc1ccccc1)NC(=O)[C@H](CC(=O)O)NC(=O)[C@H](CCCNC(=N)N)NC(=O)[C@H](C)NC(=O)[C@H](CCCNC(=N)N)NC(=O)[C@H](CCCCNC(=O)COCCOCCNC(=O)COCCOCCNC(=O)CC[C@H](NC(=O)CCCCCCCCCCCCCCCCC(=O)O)C(=O)O)NC(=O)[C@H](CO)NC(=O)[C@H](CC(=O)O)NC(=O)[C@H](CC(C)C)NC(=O)[C@](C)(Cc1ccccc1)NC(=O)[C@H](CCCCN)NC(=O)[C@H](CO)NC(=O)[C@@H](NC(=O)[C@H](CC(=O)O)NC(=O)[C@H](CO)NC(=O)[C@@H](NC(=O)[C@H](Cc1ccccc1)NC(=O)[C@@H](NC(=O)CNC(=O)[C@H](CCC(N)=O)NC(=O)C(C)(C)NC(=O)[C@@H](N)Cc1c[nH]cn1)[C@@H](C)O)[C@@H](C)O)C(C)C)C(C)C)C(=O)N[C@@H](CC(C)C)C(=O)NC(C)(C)C(=O)N[C@H](C(=O)N[C@@H](CCC(=O)O)C(=O)O)[C@@H](C)O
Turning to B5, the “hGLP-1R EC50 (pM)” value in test [3] is 448 pM. In addition, the “hGluc-R EC50 (pM)” value in test [4] was found to be 886 pM.

B6: Peptide 36 (peptide)
peptide: H[Aib]QGTFTSDVSK[αMeF]LDSK([AEEA-AEEA-γGlu-C18 diacid])RARDFVQWLL[Aib]T-OH
modifications: N-terminus assumed
SMILES: CC(C)C[C@H](NC(=O)[C@H](Cc1c[nH]c2ccccc12)NC(=O)[C@H](CCC(N)=O)NC(=O)[C@@H](NC(=O)[C@H](Cc1ccccc1)NC(=O)[C@H](CC(=O)O)NC(=O)[C@H](CCCNC(=N)N)NC(=O)[C@H](C)NC(=O)[C@H](CCCNC(=N)N)NC(=O)[C@H](CCCCNC(=O)COCCOCCNC(=O)COCCOCCNC(=O)CC[C@H](NC(=O)CCCCCCCCCCCCCCCCC(=O)O)C(=O)O)NC(=O)[C@H](CO)NC(=O)[C@H](CC(=O)O)NC(=O)[C@H](CC(C)C)NC(=O)[C@](C)(Cc1ccccc1)NC(=O)[C@H](CCCCN)NC(=O)[C@H](CO)NC(=O)[C@@H](NC(=O)[C@H](CC(=O)O)NC(=O)[C@H](CO)NC(=O)[C@@H](NC(=O)[C@H](Cc1ccccc1)NC(=O)[C@@H](NC(=O)CNC(=O)[C@H](CCC(N)=O)NC(=O)C(C)(C)NC(=O)[C@@H](N)Cc1c[nH]cn1)[C@@H](C)O)[C@@H](C)O)C(C)C)C(C)C)C(=O)N[C@@H](CC(C)C)C(=O)NC(C)(C)C(=O)N[C@H](C(=O)O)[C@@H](C)O
With B6, the “hGLP-1R EC50 (pM)” value in test [3] is 43.1 pM. The “hGluc-R EC50 (pM)” value in test [4] came out at 278 pM.

B7: Peptide 37 (peptide)
peptide: H[Aib]QGTFTSDVSK[αMeF]LDSK([AEEA-AEEA-γGlu-C18 diacid])RAEDFVQWLL[Aib]T-OH
modifications: N-terminus assumed
SMILES: CC(C)C[C@H](NC(=O)[C@H](Cc1c[nH]c2ccccc12)NC(=O)[C@H](CCC(N)=O)NC(=O)[C@@H](NC(=O)[C@H](Cc1ccccc1)NC(=O)[C@H](CC(=O)O)NC(=O)[C@H](CCC(=O)O)NC(=O)[C@H](C)NC(=O)[C@H](CCCNC(=N)N)NC(=O)[C@H](CCCCNC(=O)COCCOCCNC(=O)COCCOCCNC(=O)CC[C@H](NC(=O)CCCCCCCCCCCCCCCCC(=O)O)C(=O)O)NC(=O)[C@H](CO)NC(=O)[C@H](CC(=O)O)NC(=O)[C@H](CC(C)C)NC(=O)[C@](C)(Cc1ccccc1)NC(=O)[C@H](CCCCN)NC(=O)[C@H](CO)NC(=O)[C@@H](NC(=O)[C@H](CC(=O)O)NC(=O)[C@H](CO)NC(=O)[C@@H](NC(=O)[C@H](Cc1ccccc1)NC(=O)[C@@H](NC(=O)CNC(=O)[C@H](CCC(N)=O)NC(=O)C(C)(C)NC(=O)[C@@H](N)Cc1c[nH]cn1)[C@@H](C)O)[C@@H](C)O)C(C)C)C(C)C)C(=O)N[C@@H](CC(C)C)C(=O)NC(C)(C)C(=O)N[C@H](C(=O)O)[C@@H](C)O
With B7, the “hGLP-1R EC50 (pM)” value in test [3] was found to be 68.6 pM. Also, the “hGluc-R EC50 (pM)” value in test [4] is 2750 pM.
